Results published in patent publication US20200123236A1.

Columns and labels:
[1] = target: HIV-1 Env of virus strain 6471.V1.C16 (HIV-1); experiment: cell-based or functional assay
[2] = target: BG505 SOSIP.664 Env trimer (HIV-1); experiment: negative stain EM of the complex, 6:1 molar ratio

Binder	IC50, neutralization of Env-pseudovirus on TZM-bl cells [1] [µg/mL]	Bi-ScFvs bound per Env trimer (Bi-ScFv per Env trimer) [2]
10E8 IgG (antibody, V domains shown) VH: EVQLVESGGGLVKPGGSLRLSCSASGFDFDNAWMTWVRQPPGKGLEWVGRITGPGEGWSVDYAAPVEGRFTISRLNSINFLYLEMNNLRMEDSGLYFCARTGKYYDFWSGYPPGEEYFQDWGRGTLVTVSS VL: SYELTQETGVSVALGRTVTITCRGDSLRSHYASWYQKKPGQAPILLFYGKNNRPSGVPDRFSGSASGNRASLTISGAQAEDDAEYYCSSRDKSGSRLSVFGGGTKLTVL	4.98	
Bi-ScFv dVRC01-5X-PGT121 (bispecific antibody) scFv: SLTQSPGTLSLSPGETAIISCRTSQYGSLAWYQQRPGQAPRLVIYSGSTRAAGIPDRFSGSRWGPDYNLTISNLESGDFGVYYCQQYEFFGQGTKVQVDIKGGGGSGGGGSGGGGSQVQLVQSGGQMKKPGESMRISCRASGYEFIDCTLNWIRLAPGKRPEWMGWLKPRGGAVNYARPLQGRVTMTRDVYSDTAFLELRSLTVDDTAVYFCTRGKNCDYNWDFEHWGRGTPVIVSSGGGGSGGGGSGGGGSGGGGSGGGGSSDISVAPGETARISCGEKSLGSRAVQWYQHRAGQAPSLIIYNNQDRPSGIPERFSGSPDSPFGTTATLTITSVEAGDEADYYCHIWDSRVPTKWVFGGGTTLTVLGGGGSGGGGSGGGGSQMQLQESGPGLVKPSETLSLTCSVSGASISDSYWSWIRRSPGKGLEWIGYVHKSGDTNYSPSLKSRVNLSLDTSKNQVSLSLVAATAADSGKYYCARTLHGRRIYGIVAFNEWFTYFYMDVWGNGTQVTVSSGSGHHHHHH		3
